The values below come from US20100256217.

The target of data set [1] is CKII-Pep, commercial CK2 substrate peptide.
Data set [2] deals with T1, recombinant WNV capsid protein with an N-terminal hexa-histidine tag, expressed in E. coli from pQE30, Q9Q6P4.
T1 chain: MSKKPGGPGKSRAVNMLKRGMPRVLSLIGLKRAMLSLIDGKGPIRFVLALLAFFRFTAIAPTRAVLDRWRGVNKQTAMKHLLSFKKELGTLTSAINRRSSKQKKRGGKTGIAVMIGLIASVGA

Data set [3] deals with T2, recombinant WNV capsid mutant rC(S36A), N-terminal hexa-histidine tag, expressed in E. coli from pQE30, Q9Q6P4.
T2 chain: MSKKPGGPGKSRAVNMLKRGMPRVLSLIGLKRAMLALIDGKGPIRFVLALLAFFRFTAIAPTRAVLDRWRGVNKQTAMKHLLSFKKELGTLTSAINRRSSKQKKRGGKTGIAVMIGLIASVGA

B1: recombinant CK2 (whole enzyme, Biomol) (protein)
chain 1: MSGPVPSRARVYTDVNTHRPREYWDYESHVVEWGNQDDYQLVRKLGRGKYSEVFEAINITNNEKVVVKILKPVKKKKIKREIKILENLRGGPNIITLADIVKDPVSRTPALVFEHVNNTDFKQLYQTLTDYDIRFYMYEILKALDYCHSMGIMHRDVKPHNVMIDHEHRKLRLIDWGLAEFYHPGQEYNVRVASRYFKGPELLVDYQMYDYSLDMWSLGCMLASMIFRKEPFFHGHDNYDQLVRIAKVLGTEDLYDYIDKYNIELDPRFNDILGRHSRKRWERFVHSENQHLVSPEALDFLDKLLRYDHQSRLTAREAMEHPYFYTVVKDQARMGSSSMPGGSTPVSSANMMSGISSVPTPSPLGPLAGSPVIAAANPLGMPVPAAAGAQQ
chain 2: not shown
In the case of B1, the dot-blot kinase assay result in data set [1] is “Only Cp(30-48) and CK-II-Pep peptides reacted positively to CK2 assay”. Moreover, the “in vitro phosphorylation (32P-ATP kinase assay, autoradiography)” value in data set [2] is listed as “purified fractions yielded was phosphorylated by CK2”. In addition, the “in vitro phosphorylation (CK2 kinase assay, autoradiography)” value in data set [3] is recorded as “the phosphorylation signal was totally absent from C(S36A) while the wild rC still was labeled in the in vitro assay”.

B2: purified recombinant CK2α subunit protein (Biomol) (protein)
chain: MSGPVPSRARVYTDVNTHRPREYWDYESHVVEWGNQDDYQLVRKLGRGKYSEVFEAINITNNEKVVVKILKPVKKKKIKREIKILENLRGGPNIITLADIVKDPVSRTPALVFEHVNNTDFKQLYQTLTDYDIRFYMYEILKALDYCHSMGIMHRDVKPHNVMIDHEHRKLRLIDWGLAEFYHPGQEYNVRVASRYFKGPELLVDYQMYDYSLDMWSLGCMLASMIFRKEPFFHGHDNYDQLVRIAKVLGTEDLYDYIDKYNIELDPRFNDILGRHSRKRWERFVHSENQHLVSPEALDFLDKLLRYDHQSRLTAREAMEHPYFYTVVKDQARMGSSSMPGGSTPVSSANMMSGISSVPTPSPLGPLAGSPVIAAANPLGMPVPAAAGAQQ
Regarding B2, the “in vitro phosphorylation (kinase assay with a single recombinant subunit)” value in data set [2] is on record as “Neither of the subunits was able to phosphorylate the protein by themselves”.
